The data set deals with SOX11 (UniProt P35716 34-132). The experiment in a line: EMSA. (A gel shift assay detects complexes by their altered migration in electrophoresis.)
Chain of SOX11 (P35716 34-132): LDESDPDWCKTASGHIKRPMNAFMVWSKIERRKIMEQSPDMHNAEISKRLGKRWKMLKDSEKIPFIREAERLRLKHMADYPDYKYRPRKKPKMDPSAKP

B1: modified Widom 601 with SOX11 site, free DNA (dsDNA)
DNA 1: CTGGAGAATCCCGGTCTGCAGGCCGCTCAATTGGTCGTAGACAGCTCTAGCACCGCTTAAACGCACGTACGGTATTGTTTATTTTGTTCCTCCGCCAAGGGGATTACTCCCTAGTCTCCAGGCACGTGTCAGATATATACATCCTGT
DNA 2: ACAGGATGTATATATCTGACACGTGCCTGGAGACTAGGGAGTAATCCCCTTGGCGGAGGAACAAAATAAACAATACCGTACGTGCGTTTAAGCGGTGCTAGAGCTGTCTACGACCAATTGAGCGGCCTGCAGACCGGGATTCTCCAG
As to B1, the binding result was “binds”.

Source of the values: article PMC6173309.
